In PMC7347935, “STK11 (LKB1) missense somatic mutant isoforms promote tumor growth, motility and inflammation” (Communications Biology, 2020):

Molecular target: T1, LKB1^Y49D (human, UniProt Q15831 1-433, Y49D)
T1 sequence (looked up): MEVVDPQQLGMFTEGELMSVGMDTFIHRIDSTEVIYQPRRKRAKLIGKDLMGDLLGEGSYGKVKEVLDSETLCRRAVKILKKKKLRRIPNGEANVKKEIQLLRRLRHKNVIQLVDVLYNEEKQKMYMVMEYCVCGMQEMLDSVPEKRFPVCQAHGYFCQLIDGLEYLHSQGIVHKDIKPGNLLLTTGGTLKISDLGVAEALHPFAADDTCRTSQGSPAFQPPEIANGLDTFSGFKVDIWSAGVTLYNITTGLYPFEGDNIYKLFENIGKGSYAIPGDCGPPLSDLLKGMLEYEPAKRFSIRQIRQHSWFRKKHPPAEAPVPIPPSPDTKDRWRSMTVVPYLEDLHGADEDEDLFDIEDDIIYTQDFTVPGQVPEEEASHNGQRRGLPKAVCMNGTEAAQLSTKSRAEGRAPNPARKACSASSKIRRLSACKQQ
Experiment: cell-based or functional assay

B1: STRADα (natural protein, human (endogenous in A549 and G361), UniProt Q7RTN6 1-431, looked up)
chain: MSFLVSKPERIRRWVSEKFIVEGLRDLELFGEQPPGDTRRKTNDASSESIASFSKQEVMSSFLPEGGCYELLTVIGKGFEDLMTVNLARYKPTGEYVTVRRINLEACSNEMVTFLQGELHVSKLFNHPNIVPYRATFIADNELWVVTSFMAYGSAKDLICTHFMDGMNELAIAYILQGVLKALDYIHHMGYVHRSVKASHILISVDGKVYLSGLRSNLSMISHGQRQRVVHDFPKYSVKVLPWLSPEVLQQNLQGYDAKSDIYSVGITACELANGHVPFKDMPATQMLLEKLNGTVPCLLDTSTIPAEELTMSPSRSVANSGLSDSLTTSTPRPSNGDSPSHPYHRTFSPHFHHFVEQCLQRNPDARPSASTLLNHSFFKQIKRRASEALPELLRPVTPITNFEGSQSQDHSGIFGLVTNLEELEVDDWEF
specific in vitro kinase activity towards NUAKtide peptide in the presence of STRADα, relative to LKB1^WT: ~30 % of LKB1^WT activity
